Measured values: patent publication US20230126400A1

How the values were obtained:
[1] = biological target: human MS4A4A (human) (UniProt Q96JQ5); test: flow cytometry (anti-mouse IgG Fc-APC) on 300.19 cells transfected with human MS4A4A (Plate D); untransfected 300.19 cells (Plate C): mean 111; no primary antibody on Plate D: 177
[2] = biological target: cynomolgus (cyno) MS4A4A (cynomolgus); test: flow cytometry (anti-mouse IgG Fc-APC) on 300.19 cells transfected with cyno MS4A4A (Plate E); untransfected 300.19 cells (Plate C): mean 111; no primary antibody on Plate E: 122
[3] = biological target: human MS4A4A (human) (UniProt Q96JQ5); test: flow cytometry (anti-mouse IgG Fc-APC) on U937 cells transfected with human MS4A4A (Plate B); untransfected U937 cells (Plate A): mean 240; no primary antibody on Plate B: 246
[4] = biological target: human MS4A4A (human) (UniProt Q96JQ5); test: functional affinity, FACS titration on stably transfected 300.19 cells
[5] = biological target: human MS4A4A (human) (UniProt Q96JQ5); test: flow cytometry (anti-mouse IgG Fc-APC) on 300.19 cells transfected with human MS4A4A (Plate D); untransfected 300.19 cells (Plate C): mean 106; no primary antibody on Plate D: 177
[6] = biological target: cynomolgus (cyno) MS4A4A (cynomolgus); test: flow cytometry (anti-mouse IgG Fc-APC) on 300.19 cells transfected with cyno MS4A4A (Plate E); untransfected 300.19 cells (Plate C): mean 106; no primary antibody on Plate E: 122
[7] = biological target: human MS4A4A (human) (UniProt Q96JQ5); test: flow cytometry (anti-mouse IgG Fc-APC) on U937 cells transfected with human MS4A4A (Plate B); untransfected U937 cells (Plate A): mean 229; no primary antibody on Plate B: 246
[8] = biological target: human MS4A4A (human) (UniProt Q96JQ5); test: flow cytometry (anti-mouse IgG Fc-APC) on 300.19 cells transfected with human MS4A4A (Plate D); untransfected 300.19 cells (Plate C): mean 110
[9] = biological target: human MS4A4A (human) (UniProt Q96JQ5); test: flow cytometry (anti-mouse IgG Fc-APC) on HEK293 cells transiently transfected with human MS4A4A (h4A_293); 293 parental cells: mean 131
[10] = biological target: human MS4A4A (human) (UniProt Q96JQ5); test: flow cytometry (anti-mouse IgG Fc-APC) on U937 cells transfected with human MS4A4A (Plate B); untransfected U937 cells (Plate A): mean 387
[11] = biological target: human MS4A4A-GFP 4A.Ala.35 (ECL2 deletion of GNS) (human) (UniProt Q96JQ5); test: FACS, HEK293T
[12] = biological target: cynomolgus (cyno) MS4A4A (cynomolgus); test: flow cytometry (anti-mouse IgG Fc-APC) on HEK293 cells transiently transfected with cyno MS4A4A (cy4A_293); 293 parental cells: mean 131
[13] = biological target: cynomolgus (cyno) MS4A4A (cynomolgus); test: flow cytometry (anti-mouse IgG Fc-APC) on 300.19 cells transfected with cyno MS4A4A (Plate E); untransfected 300.19 cells (Plate C): mean 110
[14] = biological target: human MS4A4A (human) (UniProt Q96JQ5); test: flow cytometry (anti-mouse IgG Fc-APC) on U937 cells transfected with human MS4A4A (Plate B); untransfected U937 cells (Plate A): mean 247; no primary antibody on Plate B: 246
[15] = biological target: human MS4A4A (human) (UniProt Q96JQ5); test: flow cytometry (anti-mouse IgG Fc-APC) on U937 cells transfected with human MS4A4A (Plate B); untransfected U937 cells (Plate A): mean 259

Row | Substance | Mean : APC-A [1] | Mean : APC-A [2] | Kd [4] [nM] | Mean : APC-A [8] | Mean : APC-A [13] | other results
1 | msIgG2a Isotype Ctrl (antibody) | – | – | – | – | – | Mean : APC-A [5]: 155; Mean : APC-A [6]: 109; Mean : APC-A [7]: 243
2 | anti-MS4A4A antibody 5C12 (BioLegend) | – | – | 27 | 19500 | 129 | Mean : APC-A [9]: 7160; Mean : APC-A [10]: 15000; % binding compared to wildtype MS4A4A [11]: 1%; Mean : APC-A [12]: 158
3 | msIgG2b Isotype Ctrl (antibody) | 155 | 107 | – | – | – | Mean : APC-A [14]: 234
4 | anti-MS4A4A antibody 3F2 (Millipore) | – | – | 9.5 | 21100 | 128 | Mean : APC-A [15]: 14300

Now from value to substance, other results behind:

Row | Mean : APC-A [1] | Mean : APC-A [2] | Kd [4] [nM] | Mean : APC-A [8] | Mean : APC-A [13] | Substance | other results
5 | 181 | 116 | – | – | – | msIgG1 Isotype Ctrl (antibody) | Mean : APC-A [3]: 248
6 | – | – | 10 | – | – | anti-MS4A4A antibody 4H2 (Kerafast) | –
